These results are taken from article PMC13399020 (The FASEB Journal, 2026).

“And” between values parts separate entries of the source, which are not always exact repeats. Identical values can stand only once.

To fix the notation:
B1: phenylalanine hydroxylase, wild type (PAH-WT), full-length (enzyme, human, UniProt P00439 1-452, looked up)
chain: MSTAVLENPGLGRKLSDFGQETSYIEDNCNQNGAISLIFSLKEEVGALAKVLRLFEENDVNLTHIESRPSRLKKDEYEFFTHLDKRSLPALTNIIKILRHDIGATVHELSRDKKKDTVPWFPRTIQELDRFANQILSYGAELDADHPGFKDPVYRARRKQFADIAYNYRHGQPIPRVEYMEEEKKTWGTVFKTLKSLYKTHACYEYNHIFPLLEKYCGFHEDNIPQLEDVSQFLQTCTGFRLRPVAGLLSSRDFLGGLAFRVFHCTQYIRHGSKPMYTPEPDICHELLGHVPLFSDRSFAQFSQEIGLASLGAPDEYIEKLATIYWFTVEFGLCKQGDSIKAYGAGLLSSFGELQYCLSEKPKLLPLELEKTAIQNYTVTEFQPLYYVAESFNDAKEKVRNFAATIPRPFSVRYDPYTQRIEVLDNTQQLKILADSINSEIGILCSALQKIK
modifications: biotin (EZ-Link NHS-PEG4-Biotin) in the BLI experiments only
notes: phenylalanine hydroxylase (PAH), human, wild type; RD residues 1-110, CD 111-410, OD 411-452; Homotetramer; a minor octamer is also seen; also called full-length PAH

Data set [1] concerns the molecule itself. Description: SEC-MALS; PAH (2 mg/mL) and pre-purified PAH:DNAJC12 complex (2 mg/mL); Superdex 200 Increase, 20 mM Na-Hepes pH 7.0, 200 mM NaCl, without L-Phe supplementation. On the technique in general: SEC sorts molecules by how far they enter the pores of the column.
In data set [2] the target is T1, DNAJC12, wild type, full-length (human, UniProt Q9UKB3 1-198).
T1 construct: J-domain 14-76, linker-helix 87-100, CTD 176-198; also called DNAJC12-WT
Kind of data set: BLI; with 1 mM L-Phe; biotinylated PAH on streptavidin biosensors, DNAJC12 0.01-4 μM in solution; 25°C, PBS, 0.02% Tween-20, 0.5 mg/mL BSA; responses against concentration fitted to a one-site hyperbola. Conditions: both partners purified.

Data set [3] addresses T1, DNAJC12, wild type, full-length. Description: BLI; without L-Phe; biotinylated PAH or TH on streptavidin biosensors, DNAJC12 0.01-4 μM in solution; 25°C, PBS, 0.02% Tween-20, 0.5 mg/mL BSA; responses against concentration fitted to a one-site hyperbola. Conditions: both partners purified.
Data set [4] shares this target. Kind of data set: SEC; with 1 mM L-Phe in sample and running buffer; 20 μM (subunit) PAH, PAH variant or MBP-PAH construct with 20-40 μM DNAJC12 or truncated DNAJC12; Superdex 200 Increase, 4°C, 20 mM Na-Hepes pH 7.0, 200 mM NaCl; complex fraction also checked by SDS-PAGE. Conditions: both partners purified.
Data set [5] concerns the target B1. Description: differential scanning fluorimetry; thermal unfolding of PAH (1.92 μM) with SYPRO Orange at increasing DNAJC12(176-198) peptide (0-16 μM); Tm1 followed. Conditions: both partners purified.
Data set [6] deals with the molecule itself. Description: SEC-MALS; MBP-PAH(RD) (4 mg/mL) alone or with DNAJC12 (4 mg/mL); Superdex 200 Increase, 20 mM Na-Hepes pH 7.0, 200 mM NaCl, 1 mM L-Phe.

With B1, the “stoichiometry N” value in data set [1] was 8 subunits in the oligomer and 4 subunits in the oligomer. The Kd came out at 139 ± 19 nM in data set [2] and 508 ± 59 nM in data set [3].

B2: PAH-p.R261Q (enzyme, human)
chain: MSTAVLENPGLGRKLSDFGQETSYIEDNCNQNGAISLIFSLKEEVGALAKVLRLFEENDVNLTHIESRPSRLKKDEYEFFTHLDKRSLPALTNIIKILRHDIGATVHELSRDKKKDTVPWFPRTIQELDRFANQILSYGAELDADHPGFKDPVYRARRKQFADIAYNYRHGQPIPRVEYMEEEKKTWGTVFKTLKSLYKTHACYEYNHIFPLLEKYCGFHEDNIPQLEDVSQFLQTCTGFRLRPVAGLLSSRDFLGGLAFQVFHCTQYIRHGSKPMYTPEPDICHELLGHVPLFSDRSFAQFSQEIGLASLGAPDEYIEKLATIYWFTVEFGLCKQGDSIKAYGAGLLSSFGELQYCLSEKPKLLPLELEKTAIQNYTVTEFQPLYYVAESFNDAKEKVRNFAATIPRPFSVRYDPYTQRIEVLDNTQQLKILADSINSEIGILCSALQKIK
notes: phenylalanine hydroxylase (PAH), human, disease-associated variant p.R261Q; Derived from pMAL-c5x/PAH, which encodes human PAH-WT; called tetrameric in the legends; also called PKU-associated variant PAH-p.R261Q; source: E. coli K12 TB1, purified
As for B2, the binding result in data set [4] was “binds”.

B3: C-terminal peptide DNAJC12(176-198) (peptide, UniProt Q9UKB3 176-198, looked up)
peptide: HLRFRWSKDAPSELLRKFRNYEI
notes: only its last seven residues 192-KFRNYEI-198 are printed; also called C-terminal DNAJC12 peptide; CTD peptide; source: synthetic peptide, bought: GenScript
In the case of B3, in data set [5], the binding result is “binds”.

B4: tyrosine hydroxylase (TH) (enzyme)
chain: not shown
modifications: biotin (EZ-Link NHS-PEG4-Biotin) in the BLI experiment only
notes: tyrosine hydroxylase (TH); The methods tell neither plasmid nor purification of TH; also called unliganded TH
B4 came in with a Kd in data set [3] of 138 ± 34 nM.

B5: MBP-PAH(33-112) (domain or fragment, human, UniProt P00439 33-112, looked up)
chain: GAISLIFSLKEEVGALAKVLRLFEENDVNLTHIESRPSRLKKDEYEFFTHLDKRSLPALTNIIKILRHDIGATVHELSRD
notes: Derived from pMAL-c5x/PAH (GenScript); Dimer in 1 mM L-Phe by SEC-MALS; theoretical monomer 52.9 kDa with MBP; also called MBP-PAH(RD); PAH(RD); source: E. coli K12 TB1, purified
B5: the binding result in data set [4] is listed as “binds”. In data set [6], the “stoichiometry N” value amounted to 2 subunits in the oligomer.

One may read the stoichiometry N as the number of molecules, sites or subunits per partner or assembly. As usually defined, the Kd is the free concentration of one partner at which half of the binding sites on the other are occupied at equilibrium, for simple one-to-one binding. The low end stands for tighter binding, the high end for weaker binding.
